From patent publication US20210388107A1 (BYONDIS B V, published 2021)
Residue numbers refer to the chain shown, from its start. Blank lines part the entries; values can stand above or below the binder they belong to.

Assays:
[1] = molecular target: T1, human SIRPαBIT expressed on cells (human, UniProt P78324 31-504); assay: flow cytometry, ExpiCHO-S cells
T1 construct: endogenous on U937 cells or transiently expressed on ExpiCHO-S cells; in the SHP-1 assay a ProLink-tagged form on Jurkat cells; also called huSIRPαBIT; U937 cells (huSIRPαBIT)
Procedure: (§1) After an incubation time of 30 min at 4° C., the cells were washed three times with ice-cold FACS buffer and 50 μl/well secondary mAb (for human antibodies, AffiniPure F(ab′)₂ fragment Goat-anti-human IgG-APC, 1:6,000 dilution, Jackson Immuno Research was added and for mouse antibodies, AffiniPure Fab fragment Goat Anti-Mouse IgG (H+L)-Alexa Fluor 488, 1:1,000 dilution, Jackson Immuno Research was added). After 30 min at 4° C., cells were washed twice and resuspended in 150 μl FACS buffer. Fluorescence intensities were determined by flow cytometry (BD FACSVerse, Franklin Lakes, N.J.) and indicated as the median fluorescence intensity (MFI-Median) for U937 cells and the mean fluorescence intensity (MFI-Mean) for ExpiCHO-S cells. Curves were fitted by nonlinear regression using the sigmoidal dose-response equation with variable slope (four parameters) in GraphPad Prism (version 7.02 for Windows, GraphPad, San Diego, Calif.). EC₅₀ values were calculated as the concentration in μg/ml that gives a response half way between bottom and top of the curve, when using a 4-parameter logistic fit.

[2] = molecular target: T2, human SIRPα1 expressed on cells (human, UniProt P78324 31-504); assay: flow cytometry, ExpiCHO-S cells
T2 construct: whole, on cells; also called huSIRPα1; ExpiCHO-S (huSIRPα1)
Procedure: as §1

[3] = molecular target: T3, cynomolgus monkey SIRPα expressed on ExpiCHO-S cells (cynomolgus monkey, UniProt A0A2K5VYQ9 31-507); assay: flow cytometry, ExpiCHO-S cells
T3 construct: whole, on cells; also called cySIRPα; ExpiCHO-S (cySIRPα)
T3 sequence: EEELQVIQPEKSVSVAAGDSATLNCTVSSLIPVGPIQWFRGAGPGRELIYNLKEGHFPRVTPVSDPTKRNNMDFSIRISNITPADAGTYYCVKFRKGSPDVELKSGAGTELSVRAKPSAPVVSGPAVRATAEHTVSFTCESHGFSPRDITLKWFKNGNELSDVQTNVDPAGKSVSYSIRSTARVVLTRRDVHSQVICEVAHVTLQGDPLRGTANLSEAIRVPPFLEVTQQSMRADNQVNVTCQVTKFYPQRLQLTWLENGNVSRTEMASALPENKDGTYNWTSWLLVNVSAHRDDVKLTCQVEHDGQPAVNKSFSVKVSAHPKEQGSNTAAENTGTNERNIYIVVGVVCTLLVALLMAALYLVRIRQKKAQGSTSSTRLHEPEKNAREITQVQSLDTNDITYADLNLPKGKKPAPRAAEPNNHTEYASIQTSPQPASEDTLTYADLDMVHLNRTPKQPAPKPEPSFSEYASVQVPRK
Procedure: as §1

[4] = molecular target: T4, human SIRPγ on human CD3+ T-cells (human, UniProt Q9P1W8 29-387); assay: flow cytometry on CD3+ T-cells in PBMC of two healthy individuals, % of positive cells
T4 construct: whole, on cells
Procedure: (§2) Flow Cytometry assay: Peripheral mononuclear cells (PBMC) were isolated from fresh blood of healthy individuals using Percoll gradient. […] Cells (200,000 cells/well in a 96-well plate) were subsequently incubated in the presence of tested antibodies or control conditions with secondary antibodies only (secondary goat anti-human IgG Alexa 633 F(ab′)₂ fragment, dilution 1:1000, Jackson Immuno Research, and secondary goat anti-mouse IgG Alexa 633 F(ab′)₂ fragment, dilution 1:250, Invitrogen) for 30 min on ice. After that, cells were washed with FACS buffer and resuspended in a mixture of anti-human CD3 FITC antibody (dilution 1:100, Invitrogen) with respective secondary antibody (either anti-human or anti-mouse) and incubated for 30 min in the dark on ice. Afterwards the cells were washed with FACS buffer and resuspended in 150 μl of FACS buffer and fluorescence intensities were determined by flow cytometry (LSRII HTS or LSRFortessa, BD Biosciences, CA, USA) and indicated as the median fluorescence intensity (MFI-Median) and percentage of positive cells.

[5] = molecular target: T5, human SIRPαBIT, extracellular domain 1-370, Avi-FXa-Fc tag (human, biotinylated); assay: SPR, captured biotinylated antigen
T5 construct: also called huSIRPαBIT; v1
Procedure: (§3) Surface Plasmon Resonance (SPR) assay: Affinity analysis was performed by single cycle kinetics analysis on a Surface Plasmon Resonance apparatus (BiaCore™ T200 system, GE Life Sciences) at 25° C. […] For each step an association time of 150 sec was used, followed by a dissociation time of 600 sec after the highest concentration only, all at a flow rate of 30 μl/min. Regeneration was performed with 6 M guanidine-HCl, 0.25 M NaOH solution (120 sec with flow rate of 30 μl/min). […] Sensorgrams were fitted with a 1:1 Langmuir model for all tested anti-SIRP antibodies. The kinetic parameters (association rate [kₐ], dissociation rate [kd] and binding constant, also referred to as equilibrium dissociation constant or binding affinity [KD]) were calculated using BiaCore™ T200 evaluation software (v3.1).

[6] = molecular target: T6, human SIRPα1 extracellular domain 1-370, Avi-FXa-Fc tag (human, biotinylated); assay: SPR, captured biotinylated antigen
T6 construct: also called huSIRPα1; v2
Procedure: as §3

[7] = molecular target: T7, human SIRPβ1v2, extracellular domain, Avi-FXa-Fc tag (human, biotinylated); assay: SPR, captured biotinylated antigen
T7 construct: also called huSIRPβ1v2
Procedure: as §3

[8] = molecular target: T8, cynomolgus monkey SIRPα, extracellular domain, Avi-FXa-Fc tag (cynomolgus monkey, biotinylated); assay: SPR, captured biotinylated antigen
T8 construct: also called cySIRPα
Procedure: as §3

[9] = molecular target: T9, human SIRPγ, extracellular domain, Avi-FXa-Fc tag (human, biotinylated); assay: SPR, captured biotinylated antigen
T9 construct: also called huSIRPγ
Procedure: as §3

[10] = molecular target: T1, human SIRPαBIT expressed on cells; assay: flow cytometry, U937 cells
Procedure: as §1

[11] = molecular target: T4, human SIRPγ on human CD3+ T-cells; assay: flow cytometry on CD3+ T-cells in PBMC of two healthy individuals, MFI
Procedure: as §2

[12] = molecular target: T10, human SIRPβ1v1, extracellular domain, Avi-FXa-Fc tag (human, biotinylated); assay: SPR, captured biotinylated antigen
T10 construct: also called huSIRPβ1v1
Procedure: as §3

[13] = molecular target: T8, cynomolgus monkey SIRPα, extracellular …; assay: SPR, captured biotinylated antigen; sub-optimal fit
Procedure: as §3

T9 sequence (chain, as listed by the source limits assumed): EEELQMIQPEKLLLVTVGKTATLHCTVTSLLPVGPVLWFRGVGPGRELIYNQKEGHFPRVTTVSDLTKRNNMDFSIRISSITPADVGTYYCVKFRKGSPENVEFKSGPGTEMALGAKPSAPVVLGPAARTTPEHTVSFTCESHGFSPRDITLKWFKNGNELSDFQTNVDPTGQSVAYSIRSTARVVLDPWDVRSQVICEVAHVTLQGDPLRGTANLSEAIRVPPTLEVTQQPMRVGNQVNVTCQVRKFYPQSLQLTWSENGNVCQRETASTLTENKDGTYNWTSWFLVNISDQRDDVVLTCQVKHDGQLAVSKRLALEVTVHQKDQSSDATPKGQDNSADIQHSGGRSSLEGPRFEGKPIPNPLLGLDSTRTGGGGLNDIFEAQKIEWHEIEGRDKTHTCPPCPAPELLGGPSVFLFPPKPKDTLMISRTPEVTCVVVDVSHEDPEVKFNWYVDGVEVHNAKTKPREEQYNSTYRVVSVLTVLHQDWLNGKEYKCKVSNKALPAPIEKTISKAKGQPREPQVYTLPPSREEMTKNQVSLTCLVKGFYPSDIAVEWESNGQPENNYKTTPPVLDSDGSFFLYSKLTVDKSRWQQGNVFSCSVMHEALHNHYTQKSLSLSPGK
T7 sequence (chain, as listed by the source limits assumed): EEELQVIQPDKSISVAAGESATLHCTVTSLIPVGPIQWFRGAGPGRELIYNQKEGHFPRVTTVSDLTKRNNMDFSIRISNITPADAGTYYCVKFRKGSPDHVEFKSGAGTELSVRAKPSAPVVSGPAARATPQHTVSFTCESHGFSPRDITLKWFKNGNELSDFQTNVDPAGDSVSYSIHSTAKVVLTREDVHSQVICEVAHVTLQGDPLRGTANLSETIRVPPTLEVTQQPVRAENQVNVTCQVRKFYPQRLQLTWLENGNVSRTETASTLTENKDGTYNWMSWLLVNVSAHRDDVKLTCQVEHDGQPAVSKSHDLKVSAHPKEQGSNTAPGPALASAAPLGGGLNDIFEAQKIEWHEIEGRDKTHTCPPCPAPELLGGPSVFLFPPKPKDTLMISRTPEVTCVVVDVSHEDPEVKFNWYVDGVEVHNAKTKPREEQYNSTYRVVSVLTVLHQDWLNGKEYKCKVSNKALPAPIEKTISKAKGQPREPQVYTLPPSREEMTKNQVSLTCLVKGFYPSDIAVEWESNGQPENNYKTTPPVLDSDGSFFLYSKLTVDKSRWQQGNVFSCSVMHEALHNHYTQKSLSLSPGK
T10 sequence (chain, as listed by the source limits assumed): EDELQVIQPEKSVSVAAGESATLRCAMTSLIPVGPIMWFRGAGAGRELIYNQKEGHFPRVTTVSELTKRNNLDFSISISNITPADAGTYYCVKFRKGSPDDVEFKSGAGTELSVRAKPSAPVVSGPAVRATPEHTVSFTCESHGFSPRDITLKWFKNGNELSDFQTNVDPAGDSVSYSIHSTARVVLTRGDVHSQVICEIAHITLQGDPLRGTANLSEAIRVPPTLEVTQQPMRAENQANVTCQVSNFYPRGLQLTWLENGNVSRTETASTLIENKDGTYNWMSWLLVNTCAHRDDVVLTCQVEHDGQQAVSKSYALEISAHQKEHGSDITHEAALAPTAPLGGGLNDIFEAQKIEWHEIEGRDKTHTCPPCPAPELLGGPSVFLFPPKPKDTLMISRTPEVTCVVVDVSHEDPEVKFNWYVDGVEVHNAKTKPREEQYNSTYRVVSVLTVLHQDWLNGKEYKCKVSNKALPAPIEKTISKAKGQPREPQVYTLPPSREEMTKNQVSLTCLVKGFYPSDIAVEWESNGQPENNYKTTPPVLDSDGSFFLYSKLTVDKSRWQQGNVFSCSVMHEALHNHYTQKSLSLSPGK
T6 sequence (chain, as listed by the source limits assumed): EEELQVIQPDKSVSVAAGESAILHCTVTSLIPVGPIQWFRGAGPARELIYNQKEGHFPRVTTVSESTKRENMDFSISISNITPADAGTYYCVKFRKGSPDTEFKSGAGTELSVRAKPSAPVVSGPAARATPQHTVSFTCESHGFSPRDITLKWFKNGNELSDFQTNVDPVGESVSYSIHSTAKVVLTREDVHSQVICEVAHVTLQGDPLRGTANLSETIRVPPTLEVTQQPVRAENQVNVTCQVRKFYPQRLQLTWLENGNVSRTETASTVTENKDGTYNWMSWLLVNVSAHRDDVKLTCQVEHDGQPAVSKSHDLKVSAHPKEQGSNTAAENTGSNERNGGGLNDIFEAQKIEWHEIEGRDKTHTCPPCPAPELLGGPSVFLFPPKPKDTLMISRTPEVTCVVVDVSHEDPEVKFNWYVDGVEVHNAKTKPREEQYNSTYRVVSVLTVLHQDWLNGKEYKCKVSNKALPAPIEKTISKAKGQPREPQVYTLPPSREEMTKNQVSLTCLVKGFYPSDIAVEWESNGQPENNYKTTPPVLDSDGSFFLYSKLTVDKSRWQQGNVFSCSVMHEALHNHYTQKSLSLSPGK
T5 sequence (chain, as listed by the source limits assumed): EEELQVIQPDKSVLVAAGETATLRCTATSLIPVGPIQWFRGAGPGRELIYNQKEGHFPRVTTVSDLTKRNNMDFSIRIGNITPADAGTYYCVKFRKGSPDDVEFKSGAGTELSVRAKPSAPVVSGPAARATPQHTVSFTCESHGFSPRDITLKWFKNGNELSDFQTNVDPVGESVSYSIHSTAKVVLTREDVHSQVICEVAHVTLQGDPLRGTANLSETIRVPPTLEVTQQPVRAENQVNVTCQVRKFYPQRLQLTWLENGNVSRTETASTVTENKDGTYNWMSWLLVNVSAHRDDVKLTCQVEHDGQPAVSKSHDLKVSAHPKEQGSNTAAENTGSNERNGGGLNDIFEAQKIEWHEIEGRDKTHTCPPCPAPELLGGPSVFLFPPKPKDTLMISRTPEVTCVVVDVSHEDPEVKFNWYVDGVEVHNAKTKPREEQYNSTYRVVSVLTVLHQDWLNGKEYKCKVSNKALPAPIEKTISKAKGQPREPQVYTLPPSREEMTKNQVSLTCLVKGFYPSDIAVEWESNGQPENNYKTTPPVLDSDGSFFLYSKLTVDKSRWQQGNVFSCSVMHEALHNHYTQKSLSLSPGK
T4 sequence (Q9P1W8 29-387): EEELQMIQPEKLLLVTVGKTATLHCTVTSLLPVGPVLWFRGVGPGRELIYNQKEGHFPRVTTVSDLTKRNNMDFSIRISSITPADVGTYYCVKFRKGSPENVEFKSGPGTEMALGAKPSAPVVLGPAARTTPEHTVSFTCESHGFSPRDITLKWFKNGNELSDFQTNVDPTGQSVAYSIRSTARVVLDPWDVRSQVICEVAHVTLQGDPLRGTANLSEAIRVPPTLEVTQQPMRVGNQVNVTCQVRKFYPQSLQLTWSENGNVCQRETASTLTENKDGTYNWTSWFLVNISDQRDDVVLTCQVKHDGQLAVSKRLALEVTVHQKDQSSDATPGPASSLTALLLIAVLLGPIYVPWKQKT

B1: humanized anti-SIRPα antibody 1 (antibody, human IgG1, kappa, L234A L235A)
heavy: not shown
light: DIQMTQSPSSLSASVGDRVTITCRASQSINSYLAWYQQKPGKAPKLLIYSASFLYSGVPSRFSGSGSGTDFTLTISSLQPEDFATYYCQSWHYISRSYTFGQGTKVEIKRTVAAPSVFIFPPSDEQLKSGTASVVCLLNNFYPREAKVQWKVDNALQSGNSQESVTEQDSKDSTYSLSSTLTLSKADYEKHKVYACEVTHQGLSSPVTKSFNRGEC
notes: human IgG1 LALA, kappa; also called mAb 1
EC50 [1]: 0.3 µg/mL
EC50 [2]: 0.28 µg/mL
EC50 [3]: 0.12 µg/mL
binding result [4]: no binding
Kd [5]: < 0.01 nM
Kd [6]: 1.49 nM
Kd [7]: 2.42 nM
Kd [8]: 1.87 nM
binding result [9]: no binding (tested: below 10 RU cut-off; up to 1600 ng/ml)
EC50 [10]: 0.09 µg/mL

B2: humanized anti-SIRPα antibody 4 (antibody, human IgG1, kappa, L234A L235A)
heavy: not shown
light: B1 light
notes: human IgG1 LALA, kappa; also called mAb 4
EC50 [1]: 0.36 µg/mL
EC50 [2]: 0.38 µg/mL
EC50 [3]: 0.14 µg/mL
binding result [4]: no binding
Kd [5]: < 0.01 nM
Kd [6]: 1.38 nM
Kd [7]: 2.34 nM
Kd [8]: 1.94 nM
binding result [9]: no binding (tested: below 10 RU cut-off; up to 1600 ng/ml)
EC50 [10]: 0.1 µg/mL

B5: humanized anti-SIRPα antibody 13 (antibody, human IgG1, kappa, L234A L235A)
heavy: not shown
light: B1 light
notes: human IgG1 LALA, kappa; also called mAb 13
EC50 [1]: 0.28 µg/mL
EC50 [2]: 0.27 µg/mL
EC50 [3]: 0.11 µg/mL
binding result [11]: no binding
Kd [5]: < 0.01 nM
Kd [6]: 1.41 nM
Kd [7]: 2.78 nM
Kd [8]: 2.05 nM
binding result [9]: no binding (tested: below 10 RU cut-off; up to 1600 ng/ml)
EC50 [10]: 0.08 µg/mL

B7: humanized anti-SIRPα antibody 7 (antibody, human IgG1, kappa, L234A L235A, V domains shown)
VH: RQLVESGGGLVQPGGSLRLSCAASGFSLSSHGISWVRQAPGKGLEWVGTIGTGVITYYASWAKGRFTGSKTSSTAYLQMTSLRAEDTAVYYCARGSAWNDPFDYWGQGTLVTVSS
VL: DIVMTQSPSSLSASVGDRVTITCQASQSVYGNNDLAWYQQKPGQAPKLLIYLASTLATGVPSRFSGSGSGTDFTLTISSLQPEDFATYYCLGGGDDEADNTFGQGTKVEIKR
notes: human IgG1 LALA, kappa; also called mAb 7
EC50 [1]: 0.2 µg/mL
EC50 [2]: 0.2 µg/mL
binding result [4]: no binding
Kd [5]: 0.378 nM
Kd [6]: 0.0171 nM
Kd [12]: 1.65 nM
binding result [9]: no binding (tested: below 10 RU cut-off; up to 1600 ng/ml)
EC50 [10]: 3.55 µg/mL

B10: humanized anti-SIRPα antibody 9 (antibody, human IgG1, kappa, L234A L235A, V domains shown)
VH: B7 VH with A84S
VL: B7 VL
notes: human IgG1 LALA, kappa; also called mAb 9
EC50 [1]: 0.11 µg/mL
EC50 [2]: 0.19 µg/mL
binding result [11]: no binding
Kd [5]: 0.365 nM
Kd [6]: 0.0191 nM
Kd [12]: 1.44 nM
binding result [9]: no binding (tested: below 10 RU cut-off; up to 1600 ng/ml)
EC50 [10]: 2.78 µg/mL

Now from value to binder, other results behind:

EC50 [1]: 0.28 µg/mL
EC50 [2]: 0.4 µg/mL
EC50 [3]: 0.15 µg/mL
binding result [4]: no binding
Kd [5]: < 0.01 nM
Kd [6]: 0.908 nM
Kd [7]: 1.92 nM
Kd [8]: 1.66 nM
EC50 [10]: 0.12 µg/mL
B3: humanized anti-SIRPα antibody 3 (antibody, human IgG1, kappa, L234A L235A)
heavy: not shown
light: B1 light
notes: human IgG1 LALA, kappa; also called mAb 3
binding result [9]: no binding (tested: below 10 RU cut-off; up to 1600 ng/ml)

EC50 [1]: 0.31 µg/mL
EC50 [2]: 0.32 µg/mL
EC50 [3]: 0.12 µg/mL
binding result [4]: no binding
Kd [5]: < 0.01 nM
Kd [6]: 1.34 nM
Kd [7]: 2.54 nM
Kd [8]: 2.27 nM
EC50 [10]: 0.1 µg/mL
B4: humanized anti-SIRPα antibody 2 (antibody, human IgG1, kappa, L234A L235A)
heavy: not shown
light: B1 light
notes: human IgG1 LALA, kappa; also called mAb 2
binding result [9]: no binding (tested: below 10 RU cut-off; up to 1600 ng/ml)

EC50 [1]: 0.26 µg/mL
EC50 [2]: 0.27 µg/mL
EC50 [3]: 0.23 µg/mL
binding result [11]: no binding
Kd [5]: < 0.01 nM
Kd [6]: 1.38 nM
Kd [7]: 1.94 nM
Kd [8]: 1.53 nM
EC50 [10]: 0.08 µg/mL
B6: humanized anti-SIRPα antibody 12 (antibody, human IgG1, kappa, L234A L235A)
heavy: not shown
light: B1 light
notes: human IgG1 LALA, kappa; also called mAb 12
binding result [9]: no binding (tested: below 10 RU cut-off; up to 1600 ng/ml)

EC50 [1]: 0.08 µg/mL
EC50 [2]: 0.11 µg/mL
binding result [11]: no binding
Kd [5]: 0.212 nM
Kd [6]: 0.0349 nM
Kd [12]: 2.01 nM
EC50 [10]: 3.73 µg/mL
B8: humanized anti-SIRPα antibody 11 (antibody, human IgG1, kappa, L234A L235A, V domains shown)
VH: B7 VH
VL: B7 VL with V3E, L11V, I21L, T101V, Q104G
notes: human IgG1 LALA, kappa; also called mAb 11
binding result [9]: no binding (tested: below 10 RU cut-off; up to 1600 ng/ml)

EC50 [1]: 0.12 µg/mL
EC50 [2]: 0.22 µg/mL
EC50 [3]: 1.91 µg/mL
binding result [4]: no binding
Kd [5]: 0.142 nM
Kd [6]: < 0.01 nM
Kd [12]: 0.593 nM
Kd [7]: 2.97 nM
EC50 [10]: 1.6 µg/mL
Kd [13]: 76.2 nM
B9: humanized anti-SIRPα antibody 5 (antibody, human IgG1, kappa, L234A L235A, V domains shown)
VH: B7 VH with W46Y, V47I
VL: B7 VL with V3E, L11V, I21L, T101V, Q104G
notes: human IgG1 LALA, kappa; also called mAb 5
binding result [9]: no binding (tested: below 10 RU cut-off; up to 1600 ng/ml)
